Key:
[1] = target: T1, mouse LDL receptor (C2C12 cells) (mouse, UniProt P35951 22-862); test: flow cytometry on C2C12 cells, antibody at 30 µg/mL
T1 construct: whole, on cells; also called murine LDL-R
Method: (§1) The cross-reactivity of the anti-LDL-R antibodies was tested in the mouse (C2C12 cells), in the rat (YB2/0 cells), and in the hamster (CHO-K1 cells). The anti-LDL-R 12G4 antibodies were incubated at a final concentration of 30 μg/mL for 3 hours at 4° C. on C2C12, CHO-K1, and YB2/0 cells that had been cultured beforehand under LPDS conditions for 24 hours. The commercial 1C6 (anti-SREBP2, IgG) and C7 (anti-LDL-R, IgG2b) antibodies were used as negative and positive control antibodies, respectively. The detection of the bond was performed using an anti-IgG-PE antibody. The results were expressed as the percentage of fluorescent cells (FIG. 6A) and as mean fluorescence (FIG. 6B).

[2] = target: T2, rat LDL receptor (YB2/0 cells) (rat, UniProt P35952 22-879); test: flow cytometry on YB2/0 cells, antibody at 30 µg/mL
T2 construct: whole, on cells
T2 sequence (P35952 22-879): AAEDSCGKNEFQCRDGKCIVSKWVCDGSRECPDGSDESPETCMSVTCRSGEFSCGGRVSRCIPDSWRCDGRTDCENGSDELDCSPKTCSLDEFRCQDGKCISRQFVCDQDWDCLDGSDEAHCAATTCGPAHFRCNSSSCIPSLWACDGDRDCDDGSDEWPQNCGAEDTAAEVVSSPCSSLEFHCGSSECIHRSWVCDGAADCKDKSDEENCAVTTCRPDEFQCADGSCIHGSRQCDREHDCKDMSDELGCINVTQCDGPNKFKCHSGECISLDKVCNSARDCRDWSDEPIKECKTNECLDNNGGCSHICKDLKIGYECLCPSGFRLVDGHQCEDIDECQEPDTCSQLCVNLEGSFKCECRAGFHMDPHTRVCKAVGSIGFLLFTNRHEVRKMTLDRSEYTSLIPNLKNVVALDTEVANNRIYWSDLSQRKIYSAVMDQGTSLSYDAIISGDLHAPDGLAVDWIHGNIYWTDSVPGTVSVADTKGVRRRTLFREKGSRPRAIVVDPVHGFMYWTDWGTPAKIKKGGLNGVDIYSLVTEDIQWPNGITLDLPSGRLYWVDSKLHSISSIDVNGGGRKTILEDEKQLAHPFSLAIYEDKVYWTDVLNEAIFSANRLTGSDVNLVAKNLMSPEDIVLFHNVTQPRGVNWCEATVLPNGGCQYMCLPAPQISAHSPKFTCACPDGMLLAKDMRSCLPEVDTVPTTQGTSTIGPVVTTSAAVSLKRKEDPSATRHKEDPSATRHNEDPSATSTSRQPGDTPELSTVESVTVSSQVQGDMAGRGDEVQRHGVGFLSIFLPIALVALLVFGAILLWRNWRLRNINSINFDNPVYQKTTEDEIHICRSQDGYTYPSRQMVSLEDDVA
Method: as §1

[3] = target: T3, hamster LDL receptor (CHO-K1 cells) (hamster, UniProt P35950 22-862); test: flow cytometry on CHO-K1 cells, antibody at 30 µg/mL
T3 construct: whole, on cells
T3 sequence (P35950 22-862): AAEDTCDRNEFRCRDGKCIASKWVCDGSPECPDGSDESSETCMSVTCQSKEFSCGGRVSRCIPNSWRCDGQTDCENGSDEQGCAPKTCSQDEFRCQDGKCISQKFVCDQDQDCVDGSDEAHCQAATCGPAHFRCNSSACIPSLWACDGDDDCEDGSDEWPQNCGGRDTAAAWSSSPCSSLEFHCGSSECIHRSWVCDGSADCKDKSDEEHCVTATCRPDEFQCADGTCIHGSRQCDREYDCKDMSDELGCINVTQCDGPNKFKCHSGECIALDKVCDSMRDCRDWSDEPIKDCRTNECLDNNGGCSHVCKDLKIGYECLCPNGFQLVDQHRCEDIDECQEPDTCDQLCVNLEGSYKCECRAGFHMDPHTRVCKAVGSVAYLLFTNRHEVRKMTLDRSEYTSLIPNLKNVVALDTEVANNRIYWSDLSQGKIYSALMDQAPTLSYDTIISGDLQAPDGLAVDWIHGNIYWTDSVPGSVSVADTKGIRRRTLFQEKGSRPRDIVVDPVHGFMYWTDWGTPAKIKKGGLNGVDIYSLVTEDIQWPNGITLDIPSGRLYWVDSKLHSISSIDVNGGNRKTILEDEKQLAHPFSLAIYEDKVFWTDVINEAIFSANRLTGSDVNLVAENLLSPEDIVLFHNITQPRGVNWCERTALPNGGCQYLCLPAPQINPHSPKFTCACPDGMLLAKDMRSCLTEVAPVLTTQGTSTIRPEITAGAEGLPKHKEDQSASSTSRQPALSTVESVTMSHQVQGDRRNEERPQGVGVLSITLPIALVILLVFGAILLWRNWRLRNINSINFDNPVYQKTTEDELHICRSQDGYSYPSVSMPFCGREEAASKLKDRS
Method: as §1

Measured: binding result

T1 sequence (P35951 22-862): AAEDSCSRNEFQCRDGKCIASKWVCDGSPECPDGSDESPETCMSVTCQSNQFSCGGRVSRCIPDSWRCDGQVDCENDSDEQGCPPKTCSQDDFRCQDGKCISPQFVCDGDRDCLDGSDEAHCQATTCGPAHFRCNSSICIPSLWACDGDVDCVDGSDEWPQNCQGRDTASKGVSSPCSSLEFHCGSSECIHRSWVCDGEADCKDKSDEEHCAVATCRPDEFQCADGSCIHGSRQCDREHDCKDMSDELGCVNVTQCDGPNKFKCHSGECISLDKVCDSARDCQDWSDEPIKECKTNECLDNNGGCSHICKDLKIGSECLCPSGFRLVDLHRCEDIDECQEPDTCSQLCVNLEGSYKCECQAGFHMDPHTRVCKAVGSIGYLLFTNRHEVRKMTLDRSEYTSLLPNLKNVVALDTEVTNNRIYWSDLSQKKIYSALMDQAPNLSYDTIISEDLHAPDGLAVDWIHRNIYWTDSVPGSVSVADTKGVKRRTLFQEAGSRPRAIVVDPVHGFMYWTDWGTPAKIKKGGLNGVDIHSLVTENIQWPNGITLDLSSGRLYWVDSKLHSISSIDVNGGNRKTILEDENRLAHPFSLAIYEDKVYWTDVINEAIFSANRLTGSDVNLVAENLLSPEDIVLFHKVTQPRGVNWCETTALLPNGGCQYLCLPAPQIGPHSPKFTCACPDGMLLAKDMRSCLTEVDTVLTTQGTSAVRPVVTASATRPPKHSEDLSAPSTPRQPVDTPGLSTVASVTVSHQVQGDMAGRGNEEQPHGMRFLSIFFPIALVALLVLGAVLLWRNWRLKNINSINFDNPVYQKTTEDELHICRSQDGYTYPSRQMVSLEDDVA

B1: anti-LDL-R 12G4 antibody (antibody, mouse IgG1, V domains shown)
VH: QIQLVQSGPELKKPGETVKISCKASGYTFTKYGMNWVKQAPGKGLKWMGWINTNTGEPTYAEEFKGRFAFSLETSASTAFLQINNLKNEDTATYFCSRGGYYDSYWGQGTLVTVSA
VL: DIVMSQSPSSLAVSVGEKVTMSCKSSQSLLYSSSQKNYLAWYQQKPGQSPKVLIYWASTRESGVPDRFTGSGSGTDFTLTISSVKAEDLAVYYCQQYYTYRTFGGGTKLEIK
notes: Murine IgG1 kappa purified from ascites of hybridoma H12G4; also called anti-LDL-R 12G4 antibodies; monoclonal antibody produced by the H12G4 hybridoma (CNCM I-3487)
binds: all assays above

Source: US20090175789A1 (LFB BIOTECHNOLOGIES, published 2009)
